From the RNAGym collection of RNA variant scans (doi:10.7554/elife.80360)

B1: CPEB3 Ribozyme (parent)
chain: GGGGGCCACAGCAGAAGCGUUCACGUCGCGGCCCCUGUCAGAUUCUGGUGAAUCUGCGAAUUCUGCUGU

Variants of: B1
Experiment: self-cleavage, relative activity (ratio to wild type); higher = more cleavage; co-transcriptional

Variant | self-cleavage
U36A C63A | 0.245
U36G U69G | 0.45
U36G U69C | 0.493
U36G U53G | 0.214
U36G U53A | 0.273
C35G U49A | 0.444
C35G U49G | 0.373
U36A C39U | 0.237
U36A C39G | 0.15
U36A G65A | 0.278
U36C C45U | 0.926
C35U A60C | 0.368
C35U A60G | 0.522
C35U A60U | 0.395
U36C U61G | 0.601
U36A A52C | 0.24
C35U G37U | 0.258
C35U G37C | 0.22
U36A U61A | 0.137
U36A U61G | 0.147
U36G U38A | 0.214
U36A C66G | 0.257
C35U U64G | 0.874
U36C U38C | 0.631

Variant | self-cleavage
U36C U38A | 0.376
U36G G47U | 0.148
U36A U49C | 0.22
C35U | 0.973
U36C C39A | 0.474
U36C C39U | 0.732
C35G U61G | 0.296
C35G U61C | 0.257
C35G U64A | 0.402
G37A A42G | 0.189
U36G C45U | 0.232
U36A U46C | 0.186
U36C U67A | 0.926
U36C U67C | 0.981
U36C C63U | 0.856
U36C U46G | 0.93
C35U G41A | 0.635
U36G U67G | 0.252
U36A G56A | 0.231
C35U C39U | 0.85
U36A C45U | 0.325
G37A A52C | 0.282
U36G G68A | 0.214
U36G G68U | 0.338

Variant | self-cleavage
U36G G68C | 0.436
U36G U49A | 0.237
U36G U49G | 0.197
U36C G37A | 0.335
C35G U67C | 0.486
G37A A51C | 0.334
G37A A51G | 0.332
G37A A60C | 0.274
G37A A60U | 0.193
U36A G37U | 0.259
U36A G37C | 0.198
U36A G37A | 0.213
U36A A59U | 0.146
U36A U44G | 0.21
U36A U44A | 0.177
C35G U53A | 0.407
U36A G50U | 0.232
C35U A40C | 0.46
C35U A40U | 0.717
U36G | 0.239
U36C | 0.939
U36A | 0.25
U36A C54G | 0.215
U36A C54A | 0.2

Variant | self-cleavage
C35U A52C | 1.01
G37A C39G | 0.277
U36C C57U | 0.277
U36A G41A | 0.146
C35U U49A | 0.969
C35U U55A | 0.82
U36G U62A | 0.131
U36G U62G | 0.238
U36A U62C | 0.314
U36C U62C | 0.528
U36G A60G | 0.209
U36G A60C | 0.206
U36A U53C | 0.181
C35U G65C | 0.568
U36A G68U | 0.248
U36A G48A | 0.269
C35U U44G | 0.835
U36C G65U | 0.485
C35U U61C | 0.625
C35U C66U | 0.905
C35U C66G | 0.813
U36A U69G | 0.347
C35U U62C | 0.752
U36C A51G | 0.914

Variant | self-cleavage
C35G U62C | 0.242
U36G A40U | 0.259
U36G C54G | 0.137
U36G C54A | 0.186
U36G U55G | 0.245
U36G U55C | 0.177
U36A U43C | 0.186
U36G C57U | 0.184
U36G C57A | 0.236
C35G U36G | 0.189
C35G U36A | 0.21
C35G U36C | 0.36
C35G U46A | 0.618
C35G U46G | 0.335
C35U C54G | 0.72
C35U C54U | 0.929
U36G U61C | 0.139
U36G U61G | 0.179
G37A A59U | 0.215
U36A A42G | 0.355
U36G G58U | 0.193
U36G U46A | 0.349
U36G U46G | 0.181
U36C G58A | 0.731

Variant | self-cleavage
U36C G58C | 0.834
C35U C57G | 0.302
C35U C57U | 0.373
U36C U69A | 0.996
U36C U43G | 0.662
U36C C66U | 0.891
U36G A51U | 0.117
U36G A51G | 0.179
U36G A51C | 0.25
C35G U55A | 0.267
C35G U55G | 0.238
C35G U55C | 0.33
C35U C45A | 0.985
C35U C45U | 0.994
C35U U43G | 0.753
C35G U38C | 0.286
C35U U67A | 0.95
U36A A40U | 0.191
C35G G65C | 0.374
U36C A52G | 0.855
C35U G50U | 0.94
C35U U69A | 0.967
U36G G56C | 0.284
C35G G68U | 0.687

Variant | self-cleavage
U36A U64C | 0.298
U36G A42U | 0.256
U36G A42C | 0.221
U36C U64A | 0.713
U36G G50A | 0.214
U36G G50C | 0.231
U36G G48U | 0.196
C35U U53C | 0.897
C35U U53G | 0.636
U36G U64A | 0.254
U36G C63A | 0.147
U36G U44C | 0.118
U36C U55G | 0.454
U36C U55A | 0.888
U36C U55C | 0.74
U36C G68U | 1.01
C35U G68A | 0.992
C35G U44G | 0.373
U36A A51G | 0.249
U36G G65U | 0.0921
U36C G50U | 0.893
U36C G50A | 0.948
U36A G58A | 0.205
